In paper PMC4211667, “Cell Fate Regulation Governed by a Repurposed Bacterial Histidine Kinase” (PLoS Biology, 2014):
Where two headings read alike, the source gives them in different places.

Experiments:
[1] = molecular target: BODIPY-DivK (unphosphorylated DivK response regulator); assay: fluorescence polarization binding assay; settings: parent: est. 2.0; read off a plot
[2] = molecular target: BODIPY-DivK∼P (phosphorylated DivK response regulator); assay: fluorescence polarization binding assay; settings: parent: est. 36; read off a plot
[3] = molecular target: the molecule itself; assay: SEC; gel filtration of the purified DivL point mutants; conditions not given
[4] = molecular target: BODIPY-DivK (unphosphorylated DivK response regulator) (Caulobacter crescentus); assay: fluorescence polarisation; 250 nM BODIPY-DivK or BODIPY-DivK∼P with varying kinase concentrations (DivL 0–120 µM), 45 min to equilibrium; DivK∼P made with 250 nM DivJ, 1 mM ATP, 5 mM MgCl2; unphosphorylated DivK with 1 mM AMP-PNP, 5 mM MgCl2; apparent Kd
[5] = molecular target: BODIPY-DivK∼P (phosphorylated DivK response regulator) (Caulobacter crescentus); assay: as above
[6] = molecular target: BODIPY-DivK (unphosphorylated DivK response regulator) (Caulobacter crescentus); assay: as above; remark: listed apart in the source
[7] = molecular target: BODIPY-DivK∼P (phosphorylated DivK response regulator) (Caulobacter crescentus); assay: as above; remark: listed apart in the source

B1: DivL(152–769) Y562A (domain or fragment, Caulobacter crescentus, UniProt Q9RQQ9 152-769, looked up)
chain: RADSGLPTAARFAAFVDSVVEPCWIAGADGQAIWGNAAFVRAVGAASAQAPALAGKSFDRGADAVVVEAAGKGERREALRWINVEGRRRAFRLSAQPLDGGGVGVFCADVTEIEDVRDAFKKHVEAHDETLNHIAEAVAIFSQTRRLSYHNTAFAELWGLEPAWLADRPTHGEVLDRLRQRRRLPETIDYAGWKAAELARYEDLGPQADDLWDLPDGRTLKVVRQPHPLGGMLLIYSDITGELRLKAQYNALIQVQQATLDKLNDAVAVFGSDGRLRLHNEAFETFWNVTPHALEAAGDFEGVVELCVPRLHDLSFWRELKGRVADPDPQMRAPTSGEVRTSDSRIVLYQSRPLPDGATLIAFADVTDTRDLQSALADRSAALAEAERLKRDFVGNVSYELRTPLTTIIGASELLERADGISERGRNHVAAVRAAATQLARSIDDVLDMAQIDAGEMALEIEDIRVSDLLLNAQERALKDAQLGGVTLAVECEEDVGLIRGDGKRLAQTLDHLVENALRQTPPGGRVTLSARRALGEVRLDVSDTGRGVPFHVQAHIFDRFVGRDRGGPGLGLALVKALVELHGGWVALESEPGNGSTFTCHLPETQQPGAMQPELGF
notes: DivL pseudo-histidine kinase, Caulobacter crescentus, residues 152-769; source: E. coli Rosetta (DE3) pLysS, purified (Ni-NTA, gel filtration)
- response [1]: 2.9 AU
- response [2]: 3.2 AU
- stoichiometry N [3]: 2

B2: DivL(152–769) R553A (domain or fragment, Caulobacter crescentus, UniProt Q9RQQ9 152-769, looked up)
chain: RADSGLPTAARFAAFVDSVVEPCWIAGADGQAIWGNAAFVRAVGAASAQAPALAGKSFDRGADAVVVEAAGKGERREALRWINVEGRRRAFRLSAQPLDGGGVGVFCADVTEIEDVRDAFKKHVEAHDETLNHIAEAVAIFSQTRRLSYHNTAFAELWGLEPAWLADRPTHGEVLDRLRQRRRLPETIDYAGWKAAELARYEDLGPQADDLWDLPDGRTLKVVRQPHPLGGMLLIYSDITGELRLKAQYNALIQVQQATLDKLNDAVAVFGSDGRLRLHNEAFETFWNVTPHALEAAGDFEGVVELCVPRLHDLSFWRELKGRVADPDPQMRAPTSGEVRTSDSRIVLYQSRPLPDGATLIAFADVTDTRDLQSALADRSAALAEAERLKRDFVGNVSYELATPLTTIIGYSELLERADGISERGRNHVAAVRAAATQLARSIDDVLDMAQIDAGEMALEIEDIRVSDLLLNAQERALKDAQLGGVTLAVECEEDVGLIRGDGKRLAQTLDHLVENALRQTPPGGRVTLSARRALGEVRLDVSDTGRGVPFHVQAHIFDRFVGRDRGGPGLGLALVKALVELHGGWVALESEPGNGSTFTCHLPETQQPGAMQPELGF
notes: as for B1
- response [1]: 2.3 AU
- response [2]: 3.2 AU
- stoichiometry N [3]: 2

B3: DivL(152–769) H579E (domain or fragment, Caulobacter crescentus, UniProt Q9RQQ9 152-769, looked up)
chain: RADSGLPTAARFAAFVDSVVEPCWIAGADGQAIWGNAAFVRAVGAASAQAPALAGKSFDRGADAVVVEAAGKGERREALRWINVEGRRRAFRLSAQPLDGGGVGVFCADVTEIEDVRDAFKKHVEAHDETLNHIAEAVAIFSQTRRLSYHNTAFAELWGLEPAWLADRPTHGEVLDRLRQRRRLPETIDYAGWKAAELARYEDLGPQADDLWDLPDGRTLKVVRQPHPLGGMLLIYSDITGELRLKAQYNALIQVQQATLDKLNDAVAVFGSDGRLRLHNEAFETFWNVTPHALEAAGDFEGVVELCVPRLHDLSFWRELKGRVADPDPQMRAPTSGEVRTSDSRIVLYQSRPLPDGATLIAFADVTDTRDLQSALADRSAALAEAERLKRDFVGNVSYELRTPLTTIIGYSELLERADGISERGRNEVAAVRAAATQLARSIDDVLDMAQIDAGEMALEIEDIRVSDLLLNAQERALKDAQLGGVTLAVECEEDVGLIRGDGKRLAQTLDHLVENALRQTPPGGRVTLSARRALGEVRLDVSDTGRGVPFHVQAHIFDRFVGRDRGGPGLGLALVKALVELHGGWVALESEPGNGSTFTCHLPETQQPGAMQPELGF
notes: as for B1
- response [1]: 4.2 AU
- response [2]: 5.1 AU
- stoichiometry N [3]: 2

B4: DivL(152–769) Y550H (domain or fragment, Caulobacter crescentus, UniProt Q9RQQ9 152-769, looked up)
chain: RADSGLPTAARFAAFVDSVVEPCWIAGADGQAIWGNAAFVRAVGAASAQAPALAGKSFDRGADAVVVEAAGKGERREALRWINVEGRRRAFRLSAQPLDGGGVGVFCADVTEIEDVRDAFKKHVEAHDETLNHIAEAVAIFSQTRRLSYHNTAFAELWGLEPAWLADRPTHGEVLDRLRQRRRLPETIDYAGWKAAELARYEDLGPQADDLWDLPDGRTLKVVRQPHPLGGMLLIYSDITGELRLKAQYNALIQVQQATLDKLNDAVAVFGSDGRLRLHNEAFETFWNVTPHALEAAGDFEGVVELCVPRLHDLSFWRELKGRVADPDPQMRAPTSGEVRTSDSRIVLYQSRPLPDGATLIAFADVTDTRDLQSALADRSAALAEAERLKRDFVGNVSHELRTPLTTIIGYSELLERADGISERGRNHVAAVRAAATQLARSIDDVLDMAQIDAGEMALEIEDIRVSDLLLNAQERALKDAQLGGVTLAVECEEDVGLIRGDGKRLAQTLDHLVENALRQTPPGGRVTLSARRALGEVRLDVSDTGRGVPFHVQAHIFDRFVGRDRGGPGLGLALVKALVELHGGWVALESEPGNGSTFTCHLPETQQPGAMQPELGF
notes: DivL pseudo-histidine kinase, Caulobacter crescentus, residues 152-769; also called DivL Y550H; source: E. coli Rosetta (DE3) pLysS, purified (Ni-NTA, gel filtration)
- response [1]: 4 AU
- response [2]: 35 AU
- stoichiometry N [3]: 2

B5: DivL(152–769) T557N (domain or fragment, Caulobacter crescentus, UniProt Q9RQQ9 152-769, looked up)
chain: RADSGLPTAARFAAFVDSVVEPCWIAGADGQAIWGNAAFVRAVGAASAQAPALAGKSFDRGADAVVVEAAGKGERREALRWINVEGRRRAFRLSAQPLDGGGVGVFCADVTEIEDVRDAFKKHVEAHDETLNHIAEAVAIFSQTRRLSYHNTAFAELWGLEPAWLADRPTHGEVLDRLRQRRRLPETIDYAGWKAAELARYEDLGPQADDLWDLPDGRTLKVVRQPHPLGGMLLIYSDITGELRLKAQYNALIQVQQATLDKLNDAVAVFGSDGRLRLHNEAFETFWNVTPHALEAAGDFEGVVELCVPRLHDLSFWRELKGRVADPDPQMRAPTSGEVRTSDSRIVLYQSRPLPDGATLIAFADVTDTRDLQSALADRSAALAEAERLKRDFVGNVSYELRTPLNTIIGYSELLERADGISERGRNHVAAVRAAATQLARSIDDVLDMAQIDAGEMALEIEDIRVSDLLLNAQERALKDAQLGGVTLAVECEEDVGLIRGDGKRLAQTLDHLVENALRQTPPGGRVTLSARRALGEVRLDVSDTGRGVPFHVQAHIFDRFVGRDRGGPGLGLALVKALVELHGGWVALESEPGNGSTFTCHLPETQQPGAMQPELGF
notes: as for B1
- response [2]: 2.6 AU
- stoichiometry N [3]: 2

B6: DivL(152–769) (domain or fragment)
chain: RADSGLPTAARFAAFVDSVVEPCWIAGADGQAIWGNAAFVRAVGAASAQAPALAGKSFDRGADAVVVEAAGKGERREALRWINVEGRRRAFRLSAQPLDGGGVGVFCADVTEIEDVRDAFKKHVEAHDETLNHIAEAVAIFSQTRRLSYHNTAFAELWGLEPAWLADRPTHGEVLDRLRQRRRLPETIDYAGWKAAELARYEDLGPQADDLWDLPDGRTLKVVRQPHPLGGMLLIYSDITGELRLKAQYNALIQVQQATLDKLNDAVAVFGSDGRLRLHNEAFETFWNVTPHALEAAGDFEGVVELCVPRLHDLSFWRELKGRVADPDPQMRAPTSGEVRTSDSRIVLYQSRPLPDGATLIAFADVTDTRDLQSALADRSAALAEAERLKRDFVGNVSYELRTPLTTIIGYSELLERADGISERGRNHVAAVRAAATQLARSIDDVLDMAQIDAGEMALEIEDIRVSDLLLNAQERALKDAQLGGVTLAVECEEDVGLIRGDGKRLAQTLDHLVENALRQTPPGGRVTLSARRALGEVRLDVSDTGRGVPFHVQAHIFDRFVGRDRGGPGLGLALVKALVELHGGWVALESEPGNGSTFTCHLPETQQPGAMQPELGF
- Kd [4]: > 150 µM
- Kd [5]: 11 µM

B7: PleC histidine kinase/phosphatase, P37894 1-842 (enzyme)
chain: VAHREFIDSERRFRLAVEAARCGIWEWDLNGDQVYLSDVTGAMFGWGGGGVVSGQDLLERISIDHRERVRQALANAAMYGAFDVSFRVPASEQGARSLWIDARGQGFGKPGSEGHARIIGVALDVTEERIAQARAQAAENRLRDAIESVSEAFVLWDRQGRLLMCNRNYRSVFSLEPKILKPGAARAEVNRFAALAIKQDHPAPDGAKGVREAEMMDGRWIQISERRTAEGGLVMTAADITAIKTQEEARRRNEEQLQNAVAGLERSQEQLAELARKYETEKVKAESANKAKSEFLANMSHELRTPLNAINGFSEIMMNEMFGPLGDQRYKGYSQDIHSSGQHLLALINDILDMSKIEAGKMNLKFESMHLEDVAEDAVRLVRNRAEAAGLKLDIDFPQLPEIEADYRAVKQVLLNLLSNAIKFTPRAGSVTVRAEVRRDPFGDLIKVSVTDTGIGIAKEDLARLAKPFEQVESQFSKTTQGTGLGLALTKSLITMHDGVLEMHSTPGEGTTVSFTLPVRHSDQKITRDFVAA
modifications: not checked
- Kd [6]: 26 µM
- Kd [7]: 2.4 µM

B8: DivJ histidine kinase, Q03228 1-597 (enzyme)
chain: RDDRYASEIIGLETLLDGLPHLAIAVRGQGQVTAVRGAAPPGVTRADLVNRGLTGAAAPGDRQRLTAAIAQAHREGSASLTFNPALGVERVVALDMHRVAPNQLVGVLRDITVERHREHALDQARIDAEALAAGRARFLANMSHELRTPLNAIMGFSDIMRARMFGPLSDRYAEYAELIHESGGHLLDLINDVLDMSKIEAERFELQRGVFDAREAVQAAMRLLRVQSDTAGVQLRGVLPPGELEVDADRRALKQIVLNLVSNALKFTPRGGQVTVTAHGYDGVLEIVVADTGVGISPEDLERLGRPYEQAGGAEQRARGTGLGLSLVRAFAQLHGGEMVIESRLGAGTTVSVRLPVLLAPMVAATPTPPAAPEAPSAPEPAPTVEEPPPASLGDNVIAFAPR
modifications: not checked
- Kd [6]: 8 µM
- Kd [7]: 16 µM
